# Data reported in patent publication US20130090457A1 (Janssen / Centocor, published 2013).
# B1: mAb 15EVQ (antibody, human IgG4 S228P, kappa, F234A L235A)
# heavy: not shown
# light: DIQMTQSPSSLSASVGDRVTITCRASQSIGLYLAWYQQKPGKAPKLLIYAASSLQSGVPSRFSGSGSGTDFTLTISSLQPEDFATYYCQQGNTLSYTFGQGTKVEIKRTVAAPSVFIFPPSDEQLKSGTASVVCLLNNFYPREAKVQWKVDNALQSGNSQESVTEQDSKDSTYSLSSTLTLSKADYEKHKVYACEVTHQGLSSPVTKSFNRGEC
# B2: mAb 15 (antibody, human IgG4 S228P, kappa)
# heavy: not shown
# light: B1 light
# B3: mAb 5429 (antibody, mouse IgG1, kappa, V domains shown)
# VH: EVQLVASGGGLVKPGASLKLSCVASGFTFSDYWMAWVRQTPGKPMEYIGDIKSDGSKVNYAPSLKNRFTISRDNARTTLYLQMSNVRSEDTATYYCNRDIGPDWYFDFWGPGTMVTVSS
# VL: DIQMTQSPTSLSASLGETVTIECRASEDIYNGLAWYQQKPGKSPQLLIYDSNSLHTGVPSRFSGRGSGTQYSLRINSLQSEDVASYFCQQYYDYPLTFGSGTKLEIKR
# B4: mAb c1811 (antibody, mouse IgG1, kappa, V domains shown)
# VH: B3 VH
# VL: B3 VL
# Legend:
# cynomolgus TLR3 on cells = cynomolgus TLR3 on cells (cynomolgus, UniProt A0A2K5WT39 32-912); experiment: cell-based or functional assay
# [1] = biological target: full-length murine TLR3 on cells (mouse, UniProt Q99MB1 26-905); experiment: cell-based or functional assay
Binder,IC50 in the cyno ISRE reporter assay (cynomolgus TLR3 on cells),IC50 in the cyno NF-κB reporter assay (cynomolgus TLR3 on cells),"IC50 in the ISRE reporter gene assay, murine TLR3-transfected HEK293T, poly(I:C) [1]"
B1,1.74 µg/mL,4.18 µg/mL,
B2,,,22 µg/mL
B3,,,0.5 µg/mL
B4,,,0.7 µg/mL
